Results on four molecules are retold here after patent US20200164071A1 (GENSUN BIOPHARMA, published 2020).

Assay [1] has as its target T1, human PD-1 on CHO-K1 cells (human, UniProt Q15116 25-288).
T1 construct: also called Human PD-1 transfected CHO-K1 cells
In words: flow cytometry blocking assay: FITC human PD-L1-Fc on human PD-1 CHO-K1 cells (Examples 11 and 15); title: PD-1 Blocking Activity Screening. As to the method:
(§1) Human or Cyno PD-1 transfected CHO-K1 cells were washed with FACS buffer (0.5% BSA 2 mM EDTA in PBS) and re-suspended at a concentration of 10⁶ cells/ml. […] The cells were then washed and re-suspended in 30 μl 7 AAD solution; 35 μl 10% neutral buffered formalin solution was then added and incubated for 15 mins. before analysis using the iQue intellicyt system.
For orientation: A flow cytometer gives signals particle by particle.

Assay [2] has as its target T1, human PD-1 on CHO-K1 cells. Nature of the assay: flow cytometry blocking assay: FITC human PD-L1-Fc on human PD-1 CHO-K1 cells (Example 11). The protocol:
as §1

For assay [3], the target named is T2, His tagged human PD-1 protein (human, UniProt Q15116 25-170, limits assumed).
T2 construct: also called huPD-1-His; not shown: His tag
In words: bio-layer interferometry (Octet RED96), antibody on anti-human IgG capture biosensors, His tagged human PD-1 as analyte, 1:1 global fit (Example 12). As to the method: […] was carried out using the Octet RED96 system (ForteBio Octet RED96 System) to characterize the binding kinetics of antibodies against His tagged human PD-1 protein. 20 nM of antibody was loaded onto the anti-human IgG capture biosensors. Association of analyte (His tagged human PD-1 protein) was observed by placing the biosensors in wells containing 2 or 3 fold serial dilution of analytes (72 nM being the highest concentration) for 5 mins. Dissociation was measured after transfer of the biosensors into kinetic buffer alone and monitoring of the interferometry signal for 10 minutes. The observed on and off rates (Ka and Kd) were fit using a 1:1 binding global fit model comprising at least 5 concentrations tested, and the equilibrium binding constant KD was then calculated.
On the technique in general: Biolayer interferometry detects binding as a change in optical thickness at a sensor tip.

Assay [4] addresses T1, human PD-1 on CHO-K1 cells. Nature of the assay: flow cytometry blocking assay: FITC human PD-L1-Fc on human PD-1 CHO-K1 cells (Examples 11 and 16); title: Blocking PD-L1 binding to PD-1. As to the method:
as §1

The target in assay [5] is T3, human TIGIT on CHO-K1 cells (human, UniProt Q495A1 23-244).
T3 construct: also called hu TIGIT; TIGIT+CHO-K1 cells
T3 sequence: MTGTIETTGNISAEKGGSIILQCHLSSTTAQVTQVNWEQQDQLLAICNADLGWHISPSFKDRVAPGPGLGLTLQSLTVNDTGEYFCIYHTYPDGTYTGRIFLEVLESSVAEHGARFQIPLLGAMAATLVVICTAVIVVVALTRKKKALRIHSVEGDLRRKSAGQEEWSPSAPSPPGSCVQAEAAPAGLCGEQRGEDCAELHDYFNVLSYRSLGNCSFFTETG
Nature of the assay: flow cytometry blocking assay: biotinylated hPVR-mIg on human TIGIT CHO-K1 cells, PE streptavidin (Examples 4 and 6). As to the method: (§2) The cells were washed 2 times before staining with PE streptavidin (BioLegend) for 20 min at 4 C. The cells were then washed, resuspended in 30 μl 7 AAD solution, and 35 μl of 10% neutral buffered formalin solution was added. The cells were then incubated for 15 min. Flow cytometry was performed and IC50 was calculated using iQue intellicyt system.

Assay [6] deals with T3, human TIGIT on CHO-K1 cells. Nature of the assay: flow cytometry blocking assay of Example 4: biotinylated hPVR-mIg on human TIGIT CHO-K1 cells.
Assay [7] addresses T4, cyno TIGIT on CHO-K1 cells (cyno, UniProt A0A7N9I9V4 89-312).
T4 construct: whole, on cells; also called cyno-hu TIGIT
Nature of the assay: flow cytometry, CHO-K1 cells expressing cyno TIGIT (binding assay of Example 5). As to the method: (§3) The mixtures were incubated at 4 C for 20 min and washed 3 times. The mixtures were stained with the secondary antibody, PE labeled F(ab′)2-Goat anti-human IgG Fc (Thermo H10104) at 4° C. for 20 min. Cells were washed and resuspended in 7AAD solution and fixed in 10% neutral buffered formalin solution for 15 minutes before analysis with the iQue Intellicyt system.

Assay [8] addresses T3, human TIGIT on CHO-K1 cells. In words: flow cytometry competition with biotinylated hPVR-mIg on CHO-K1 cells expressing human TIGIT. As to the method:
as §2

Assay [9] shares this target. Nature of the assay: flow cytometry, CHO-K1 cells expressing full-length human TIGIT, PE F(ab')2 goat anti-human IgG Fc (Example 5). As to the method: as §3
The target in assay [10] is T5, human TIGIT (antigen of Table 3) (human, UniProt Q495A1 23-141, limits assumed).
T5 construct: neither the method nor the antigen construct is described; limits and tags unknown; also called hu TIGIT
T5 sequence: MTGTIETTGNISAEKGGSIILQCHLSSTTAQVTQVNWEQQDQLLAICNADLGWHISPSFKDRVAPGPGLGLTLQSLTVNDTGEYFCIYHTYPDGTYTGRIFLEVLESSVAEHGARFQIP
In words: binding kinetics, method not described (Table 3, Binding Affinity).

For assay [11], the target named is T4, cyno TIGIT on CHO-K1 cells. Nature of the assay: flow cytometry blocking assay of Example 4: biotinylated hPVR-mIg on cyno TIGIT CHO-K1 cells.
Assay [12] deals with T3, human TIGIT on CHO-K1 cells. Nature of the assay: flow cytometry, CHO-K1 cells expressing human TIGIT (binding assay of Example 5). As to the method:
as §3

Assay [13] has as its target T6, cyno PD-1 on CHO-K1 cells (cyno).
T6 construct: whole, on cells; also called cyno hu PD-1; Cyno PD-1 transfected CHO-K1 cells
Nature of the assay: flow cytometry blocking assay of Example 11, PD-L1 on cyno PD-1 CHO-K1 cells; cyno taken from the legend paragraph 42 ('cyno-hu'), while Example 11 speaks of human PD-1 and human PD-L1 for this figure. The protocol:
as §1

Assay [14] addresses T1, human PD-1 on CHO-K1 cells. Nature of the assay: flow cytometry blocking assay: FITC human PD-L1-Fc on human PD-1 CHO-K1 cells (Example 11); axis: % of PD-L1 Binding Signal; first of two legend entries printed PD-05 Human. The protocol: as §1
The target in assay [15] is T1, human PD-1 on CHO-K1 cells. Nature of the assay: flow cytometry blocking assay: FITC human PD-L1-Fc on human PD-1 CHO-K1 cells (Example 11; the legend paragraph 42 calls it binding to hu PD-L1). As to the method:
as §1

Assay [16] deals with T3, human TIGIT on CHO-K1 cells. Nature of the assay: flow cytometry competition assay: PVR (CD155) signal on human TIGIT CHO-K1 cells against titrated antibody (Example 3 names human PVR-human Fc, m15, with PE anti-human Fc). The source says: Cells were then washed with FACS buffer and then re-suspended in 7-amino-actinomycin D (7AAD) solution before analysis with iQue intellicyt system.

T2 sequence (Q15116 25-170 limits assumed): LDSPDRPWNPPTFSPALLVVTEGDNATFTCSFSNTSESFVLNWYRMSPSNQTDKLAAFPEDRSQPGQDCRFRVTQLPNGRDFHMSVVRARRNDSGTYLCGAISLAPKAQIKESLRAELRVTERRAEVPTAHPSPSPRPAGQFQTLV
T1 sequence (Q15116 25-288): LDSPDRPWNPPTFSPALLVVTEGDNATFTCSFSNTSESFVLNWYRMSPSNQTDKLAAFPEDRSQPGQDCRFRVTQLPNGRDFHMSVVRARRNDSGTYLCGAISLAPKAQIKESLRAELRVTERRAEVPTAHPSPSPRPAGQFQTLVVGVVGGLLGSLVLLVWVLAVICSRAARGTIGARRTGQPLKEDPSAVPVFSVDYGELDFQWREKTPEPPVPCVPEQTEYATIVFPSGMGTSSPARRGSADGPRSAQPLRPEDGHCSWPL
T4 sequence (A0A7N9I9V4 entry or part of it): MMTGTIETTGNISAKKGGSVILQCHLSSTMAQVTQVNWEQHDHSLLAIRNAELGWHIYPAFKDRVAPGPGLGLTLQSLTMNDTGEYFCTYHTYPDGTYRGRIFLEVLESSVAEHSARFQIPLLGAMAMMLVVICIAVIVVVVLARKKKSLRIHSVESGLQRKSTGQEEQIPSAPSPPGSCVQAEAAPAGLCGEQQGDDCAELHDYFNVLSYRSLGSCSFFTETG

B1: PD-01 mab (antibody, V domains shown)
VH: EVQLVESGGGLVQPGGSLRLSCAASGFTFSNFLMSWVRQAPGKGLEWVSTISGGGRDTYYVDSVKGRFTISRDNSKNTLYLQMNSLRAEDTAVYYCAKRTTYSMDYWGQGTSVTVSS
VL: DIQMTQSPSSVSASVGDRVTITCLASQTIGTWLAWYQQKPGKAPKLLIYAATSLADGVPSRFSGSGSGTDFTLTISSLQPEDFATYYCQQFYSIPWTFGGGTKLEIK
notes: also called anti-PD-1 (PD-01)
In general, IC50 refers to the concentration that inhibits the measured activity by half. Low readings indicate inhibition by little substance, high ones a need for much substance. A word on the Kd: it is the equilibrium constant for the complex coming apart. Low readings indicate a tighter complex, high ones a looser complex. The koff is the rate constant with which the complex falls apart. Read a high koff as fast dissociation. Broadly, the kon is a measure of how fast the partners come together. The low end stands for slower complex formation, the high end for faster complex formation. As to B1, the “IC50 (read off the curve)” value in assay [1] is about 1 nM. Moreover, the IC50 in [2] stood at 2.28 nM. Further, in assay [3], binding was characterised by a dissociation constant (Kd) of 2.2 nM, the koff was 0.000272 s⁻¹ and the kon was 126000 M⁻¹ s⁻¹. In assay [4], this molecule showed an IC50 of 1.5 nM.

B2: T-08 (antibody, V domains shown)
VH: QVQLVQSGSELKKPGASVKVSCKASGYTFTNYGMNWVRQAPGQGLEWMGWINTYTGEPTYADDFKGRFVFSLDTSVSTAYLQISSLKAEDTAVYYCARAPPYGYDVRFAYWGQGTLVTVSS
VL: DVVMTQSPLSLPVTLGQPASISCRSSQSIVHSNGNTYLEWFQQRPGQSPRVLIYKVSDRFSGVPDRFSGSGSGTDFTLKISRVEAEDVGVYYCFQGSHVPWTFGRGTKLEIK
notes: Anti-human TIGIT monoclonal antibody from mouse hybridoma; also called anti-hu TIGIT mab T-08; anti-TIGIT (T-08)
In general, EC50 (read off the curve) refers to the concentration giving half of the maximal effect. Usually EC50 stands for the concentration at which the effect is half-maximal. A low value points to higher potency in that assay. On to B2, for which the IC50 in assay [5] is 1.2 nM; in assay [8], 0.4 to 1.67 nM. For the same molecule, the “IC50 (read off the curve)” value in assay [6] and in assay [11] was about 1 nM each time. The “EC50 (read off the curve)” value is about 1 nM in assay [7] and about 0.5 nM in [12]. Also, the EC50 in assay [9] was found to be 0.4 nM. The molecule also came in with a Kd in assay [10] of 5.44 nM. The molecule also yielded a koff in assay [10] of 0.00376 s⁻¹. In [10], the kon was 690000 M⁻¹ s⁻¹.

B3: PD-05 (antibody, V domains shown)
VH: QVQLVQSGAEVKKPGASVKVSCKASGYTFTTYYIYWVRQAPGQGLEWMGGINPGNGGTNFNEKFKIRVTMTRDTSISTAYMELSSLRSEDTAVYYCARRYHGYDGGLDYWGQGTLVTVSS
VL: DIVLTQSPASLAVSPGQRATITCRASKSVSTSGFSYIHWYQQKPGQPPKLLIYLASNLESGVPARFSGSGSGTDFTLTINPVEANDTANYYCQHTWELPNTFGGGTKVEIK
notes: also called anti-PD-1 mab PD-05
Turning to B3, the IC50 was 1.6 nM in [13], 0.56 nM in assay [14] and 0.56 nM in assay [15].

B4: T-04 (antibody, V domains shown)
VH: EVQLVQSGAEVKKPGATVKISCKVSGYTFTDHTIHWVQQAPGKGLEWMGYIYPRDGSSKYNVKFKGRVTITADTSTDTAYMELSSLRSEDTAVYYCATGMLRWFAYWGQGTLVTVSS
VL: DIQMTQSPSSLSASVGDRVTITCKASQDVFTAVAWYQQKPGKAPKLLIYSASYRYTGVPSRFSGSGSGTDFTFTISSLQPEDIATYYCQQHYSIPLTFGAGTKLEIK
notes: Anti-human TIGIT monoclonal antibody from mouse hybridoma; also called anti-hu TIGIT mab T-04
On to B4, for which, in assay [5], the “IC50 (read off the curve)” value was about 0.4 nM. The molecule also came in with an IC50 in [8] of 0.12 to 0.31 nM. For the same molecule, a half-maximal response in assay [9] (EC50) required 0.23 nM. In [10], this molecule showed a Kd of 0.67 nM, a koff of 0.000538 s⁻¹ and a kon of 809000 M⁻¹ s⁻¹. Besides, in [16], the “IC50 (read off the curve)” value is about 0.3 nM.
